Assay results: patent publication US20040053425A1

Target: human prostate-specific antigen (PSA) (human) (UniProt P07288)
Assay: cell-based or functional assay

Sequence of UniProt P07288 (P07288 25-261 limits assumed): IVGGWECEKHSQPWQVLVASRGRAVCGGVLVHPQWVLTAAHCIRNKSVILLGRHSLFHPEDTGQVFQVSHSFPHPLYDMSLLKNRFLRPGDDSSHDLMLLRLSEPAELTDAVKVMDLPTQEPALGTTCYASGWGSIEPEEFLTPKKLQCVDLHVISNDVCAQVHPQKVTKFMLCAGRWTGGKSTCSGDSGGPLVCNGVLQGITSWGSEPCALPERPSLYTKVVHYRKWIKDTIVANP

decrease in PSA enzymatic activity: 46%
Substance: anti-PSA monoclonal antibody clone ER-PR8
